Laboratory results reported in the Human Domainome abundance scans (Beltran et al. 2025).

B1: Transcriptional regulator ERG, residues 117 to 197; numbered along this chain, P11308 (parent)
chain: NMTTNERRVIVPADPTLWSTDHVRQWLEWAVKEYGLPDVNILLFQNIDGKELCKMTKDDFQRLTPSYNADILLSHLHYLRE
B2: Steroid hormone receptor ERR2, residues 100 to 176; numbered along this chain, O95718 (parent)
chain: KRLCLVCGDIASGYHYGVASCEACKAFFKRTIQGNIEYSCPATNECEITKRRRKSCQACRFMKCLKVGMLKEGVRLD

Variants of: B1
Experiment: abundance fitness (aPCA) (normalised: wild type 0, dead -1); higher = more abundant; growth selection in yeast, the domain comes from the species named
Conditions: Homo sapiens

Abundance fitness of substitutions, site by site:
E6: H 0.004 | M 0.024 | D -0.085 | Y -0.089 | R -0.088 | I 0.007 | A -0.139 | C -0.242 | S -0.107 | G 0.031 | Q 0.002 | P 0.033 | T -0.017 | V -0.142 | L 0.006 | W 0.037 | N 0.017 | F 0.002
N1: F 0.012 | D -0.071 | H -0.279 | Q -0.011 | Y 0.029 | G -0.154 | K -0.114 | W -0.168 | A -0.144 | I 0.007 | R -0.054 | C -0.057 | M -0.087 | S -0.097 | E -0.038 | T 0.002
R7: K 0.018 | I -0.208 | N -0.09 | L 0.087 | M 0.044 | E 0.06 | H -0.115 | Q 0.016 | P 0.049 | D 0.037 | A 0 | C -0.12 | G -0.003
T4: R -0.149 | Y -0.04 | W 0.01 | H -0.151 | E 0.035 | F 0.079 | N -0.028 | C -0.018 | M 0.146 | P -0.056 | K -0.043 | A -0.099 | D 0.04 | L -0.025 | Q -0.126 | G -0.042 | I 0.054
N5: A -0.06 | S -0.119 | H -0.071 | R -0.044 | F 0.075 | M 0.085 | D 0.079 | W -0.003 | C -0.01 | I 0.036 | P -0.092 | K 0.001 | G -0.01 | Y -0.105 | T -0.071 | V -0.004 | E 0.064
T3: E -0.045 | N -0.025 | R -0.05 | I -0.014 | G -0.022 | Y -0.141 | H -0.127 | P -0.162 | K -0.109 | D -0.05 | L -0.094 | V -0.08 | A -0.043 | M 0.029 | F -0.007 | S 0.055 | C -0.088 | Q -0.043
M2: K -0.144 | Q 0.037 | E -0.213 | T -0.033 | R -0.049 | P 0.004 | N -0.028 | F -0.048 | S -0.105 | I -0.143 | C -0.166 | D -0.195 | W -0.17 | H -0.046 | V -0.417 | A -0.296 | L -0.042 | G -0.337 | Y -0.139

Variants of: B2
Experiment: as above
Conditions: Homo sapiens

Abundance fitness, by site and new letter:
K71: D -0.102 | T -0.106 | Y -0.222 | V -0.02 | L -0.148 | N -0.147 | F -0.305 | G -0.166 | M -0.063 | Q -0.153 | C -0.006 | P -0.19 | I -0.047 | E -0.07 | A -0.109 | W -0.242 | S -0.025
V67: Y -0.347 | E -0.145 | N -0.538 | M -0.061 | T -0.262 | I -0.323 | A -0.121 | R -0.409 | G -0.425 | F -0.24 | L -0.222 | P -1.03 | S -0.073 | W -0.665 | H -0.321 | C -0.027 | Q -0.439 | D -0.646
E72: T -0.104 | P -0.029 | M -0.448 | Y -0.501 | D -0.012 | F -0.556 | S -0.051 | R -0.355 | A -0.088 | G -0.122 | I -0.299 | C -0.262 | N 0.02 | Q -0.16 | W -0.503 | L -0.424 | H -0.368
K66: S -0.011 | W -0.559 | F -0.585 | H -0.168 | E -0.073 | M 0.074 | Y -0.508 | T 0.162 | Q -0.03 | G -0.256 | P -1.27 | C -0.354 | V -0.241 | L -0.436 | R -0.019 | D -0.103
L70: Q -0.035 | A -0.004 | G -0.084 | R 0.014 | D 0.069 | E 0.101 | P -0.044 | M -0.03 | F -0.066 | H -0.158 | C -0.098 | Y -0.646 | T 0.011 | N 0.032 | I 0.034 | K 0.13 | W -0.032 | S 0.083 | V 0.107
L76: K -0.028 | A 0.124 | S -0.07 | Y -0.001 | C -0.099 | E 0.146 | Q -0.007 | G 0.055 | D 0.08 | W -0.095 | M -0.001 | I -0.037 | V 0.058 | P -0.079 | T -0.024 | N 0.056
M69: T -0.54 | R -0.729 | G -0.703 | L -0.431 | E -0.57 | Q -0.752 | V -0.749 | A -0.639 | Y -0.259 | P -0.782 | F 0.058 | D -0.694 | H -1.06 | C -0.937 | N -0.642 | I -0.581 | W -0.231 | K -0.931
D77: T -0.04 | P 0.171 | C -0.348 | A -0.131 | Y -0.29 | H 0.082 | W -0.287 | L -0.168 | G -0.194 | V -0.111 | I -0.572 | Q 0.26 | M -0.35 | S -0.059 | F -0.363 | R -0.11 | N -0.166 | E -0.096
V74: Y -0.319 | P -0.025 | N -0.036 | T -0.129 | D 0.03 | M -0.13 | K -0.124 | F -0.171 | G -0.089 | A 0.126 | S -0.017 | R -0.191 | L -0.004 | E 0.08 | I -0.026 | C -0.501
L65: Q -0.102 | V -0.082 | M -0.175 | N -0.813 | K -0.466 | S -0.442 | R -0.459 | I -0.289 | T -0.516 | H -0.797 | P -0.753 | Y -0.456 | W -0.697
G73: F -0.369 | L -0.016 | Q 0.046 | S -0.031 | P 0.019 | R -0.056 | E 0.118 | C -0.126 | H -0.104 | T 0.002 | W -0.031 | K 0.017 | D 0.133 | N -0.107 | I -0.441 | M 0.007 | V -0.132 | A 0.08 | Y -0.6
G68: T -0.849 | A -0.777 | M -0.851 | K -0.454 | H -0.657 | R -0.903 | L -0.749 | D -0.267 | P -0.894 | N -0.753 | S -0.954 | Q -0.944 | W -0.806 | C -0.808
R75: V 0.002 | A 0.035 | T 0.062 | E 0.076 | W -0.1 | I -0.051 | F -0.014 | D 0.04 | K 0.075 | N -0.074 | Q 0.153 | H -0.165 | Y -0.102 | P 0.031 | C 0.117
